Source: the Human Domainome abundance scans (Beltran et al. 2025)

B1: Ras GTPase-activating protein 1, residues 281 to 341; numbered along this chain, P20936 (parent)
chain: RRRVRAILPYTKVPDTDEISFLKGDMFIVHNELEDGWMWVTNLRTDEQGLIVEDLVEEVGR

Variants of: B1
Assay: abundance fitness (aPCA) (normalised: wild type 0, dead -1); higher = more abundant; growth selection in yeast, the domain comes from the species named
Conditions: Homo sapiens

Abundance fitness, by site and new letter:
I51: K -1.09 | G -0.761 | C -0.401 | L -0.157 | P -0.912 | A -0.481 | E -0.899 | H -0.857 | D -0.814 | F -0.826
G36: N -0.149 | P -0.597 | D -0.613 | Y -0.874 | Q -0.557 | I -0.88 | V -0.876 | H -0.161 | F -0.951 | K -0.344 | W -0.867 | M -0.928 | R -0.188 | L -0.6 | C -0.664
L50: A -0.002 | K 0.131 | V -0.043 | R 0.142 | F -0.126 | D -0.958 | S -0.07 | M 0.004 | N -0.828 | P -0.504 | G -0.613 | I -0.03 | T -0.04 | H -0.426 | Y -0.05 | E -0.395 | W -0.07
D35: G 0.015 | Y -0.268 | H -0.038 | W -0.337 | R -0.035 | I -0.487 | P -0.126 | K -0.036 | F -0.182 | T -0.098 | C -0.163 | S -0.103 | Q 0.007 | M -0.142 | L -0.207 | A -0.024 | V -0.392 | E -0.047 | N -0.025
E34: S -0.01 | I -0.258 | N -0.004 | K -0.026 | F -0.238 | M -0.159 | Q 0.074 | A 0.023 | G -0.035 | T -0.106 | Y -0.188 | R 0.065 | P 0.03 | L -0.182 | W -0.28 | D -0.033 | V -0.089
T41: C -0.425 | I -0.594 | K -0.143 | M -0.362 | F -0.88 | N -0.576 | W -0.378 | P -0.973 | G -0.941 | V -0.289 | L -0.357 | H -0.078 | R -0.102 | Y -0.312 | D -0.862 | S -0.19 | A -0.633
E47: Y -0.77 | N -0.428 | T -0.263 | Q -0.135 | V -0.375 | M -0.257 | S -0.348 | H -0.253 | D -0.104 | G -0.684 | W -0.94 | F -0.841 | K -0.23 | L -0.417 | A -0.254 | C -0.192 | P -0.993
Q48: P -0.503 | E -0.06 | F -0.122 | H -0.048 | C -0.043 | M -0.107 | T 0.019 | G -0.375 | A -0.073 | K 0.015 | I -0.084 | R -0.051 | S -0.022 | W -0.32 | D -0.038 | Y -0.08
V40: D -0.846 | C -0.102 | E -1.13 | L -0.935 | N -0.987 | P -0.77 | H -0.858 | R -0.836 | G -0.547 | I -0.829 | S -0.826 | W -0.917 | Q -1.01 | K -0.682 | A 0.002 | F -0.881 | T -0.672
R44: D -0.885 | Q -0.314 | K -0.648 | M -0.287 | V -0.708 | N -0.224 | Y -0.523 | L -0.905 | H -0.542 | E -0.442 | F -0.637 | T -0.319 | I -0.774 | P -0.9 | S -0.207 | C -0.47
M38: Y -0.188 | K -0.414 | D -0.871 | V -0.305 | R -0.505 | A -0.396 | L -0.013 | Q -0.548 | H -0.865 | W -0.438 | G -0.78 | E -1.24 | F -0.18 | N -0.623 | P -0.867 | S -0.451 | C -0.228
W37: M 0.006 | L -0.003 | I -0.104 | G -0.049 | Q 0.073 | H 0.044 | P -0.795 | K 0.121 | A -0.014 | C -0.016 | S 0.004 | T 0.037 | Y 0.024 | F -0.004 | E -0.176 | R 0.088
N42: H -0.381 | Y -0.969 | V -0.963 | P -0.874 | C -0.1 | G -0.802 | K -0.61 | Q -0.737 | S -0.235 | M -0.577 | E -0.698 | F -0.782 | A -0.436 | D -0.585 | W -0.929 | T -0.875 | L -0.296 | I -0.893
D46: A 0.05 | K 0.085 | S -0.011 | W 0.029 | Y -0.098 | N 0.004 | I -0.085 | C -0.002 | F -0.065 | R 0.019 | H 0.009 | P -0.864 | G 0.038 | V -0.044 | Q -0.11 | T -0.029 | E 0.066 | L -0.08 | M -0.014
L43: V -0.044 | S -0.19 | N -0.388 | P -0.784 | T -0.038 | E -0.026 | W -0.748 | F -0.425 | A -0.229 | C 0.007 | K -0.206 | Y -0.35 | M 0.005 | R -0.437 | I -0.012 | H -0.612 | D -0.422 | G -0.694
L33: S -0.102 | E -0.153 | R 0.04 | D -0.182 | N -0.158 | A -0.054 | C -0.07 | Q 0.004 | G -0.082 | I -0.075 | Y -0.051 | P -0.07 | W -0.136 | F -0.042 | T -0.03 | M -0.099
T45: F -0.796 | H -0.769 | D -0.762 | A -0.735 | N -0.005 | M -0.974 | E -0.997 | L -0.836 | P -0.988 | S -0.098 | W -0.876 | G -0.851 | Q -0.962 | C -0.771 | V -0.807 | Y -0.841 | K -1.05
N31: Y -0.057 | W -0.043
G49: F -0.754 | L -0.847 | N -0.836 | I -0.874 | V -0.949 | W -1.09 | R -1.04 | P -0.846 | T -0.791 | E -0.766 | Q -1.01 | A -0.926 | D -0.836 | S -0.979 | H -0.825 | Y -0.936 | C -0.784
W39: T -0.26 | D -0.226 | P -0.796 | G -0.67 | R -0.03 | H -0.204 | M -0.094 | F -0.034 | C -0.187 | V -0.195 | N -0.134 | L -0.063 | E 0.003 | Q -0.079 | Y -0.009 | K -0.118 | I -0.284
E32: I 0.031 | D -0.026 | F -0.054 | W -0.103 | S -0.019 | V -0.018 | C -0.058 | K 0.01 | R -0.053 | P -0.35 | M 0.017 | G -0.299 | Y -0.03 | N -0.07 | A -0.068 | T 0.003
